This is an account of results in patent US20050239706A1, “Modulation of fiaf and the gastrointestinal microbiota as a means to control energy storage in a subject” (Washington University in St. Louis, priority 2003, published 2005).

Experiment [1] deals with Lipoprotein lipase (LPL) (mouse) (UniProt P11152). Briefly: cell-based or functional assay.
A further experiment addresses T1, LPL (Homo sapiens, UniProt P06858).
T1 sequence (P06858 28-475): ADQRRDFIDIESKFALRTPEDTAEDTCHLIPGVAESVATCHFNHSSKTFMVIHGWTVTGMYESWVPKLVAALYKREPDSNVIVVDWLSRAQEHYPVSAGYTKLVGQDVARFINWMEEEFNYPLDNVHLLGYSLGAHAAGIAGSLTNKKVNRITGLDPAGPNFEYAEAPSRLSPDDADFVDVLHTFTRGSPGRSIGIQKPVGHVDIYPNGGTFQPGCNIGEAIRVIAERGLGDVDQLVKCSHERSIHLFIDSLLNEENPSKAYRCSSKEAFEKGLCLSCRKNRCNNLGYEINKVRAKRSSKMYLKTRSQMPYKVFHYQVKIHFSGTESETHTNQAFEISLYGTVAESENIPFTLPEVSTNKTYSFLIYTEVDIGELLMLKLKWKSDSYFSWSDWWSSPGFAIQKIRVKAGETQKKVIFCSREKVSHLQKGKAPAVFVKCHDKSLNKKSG
The settings on record: in vitro; read-out: IC50 for inhibition of LPL; cited from earlier work.

Sequence of Lipoprotein lipase (LPL) (mouse) (P11152 28-474 limits assumed): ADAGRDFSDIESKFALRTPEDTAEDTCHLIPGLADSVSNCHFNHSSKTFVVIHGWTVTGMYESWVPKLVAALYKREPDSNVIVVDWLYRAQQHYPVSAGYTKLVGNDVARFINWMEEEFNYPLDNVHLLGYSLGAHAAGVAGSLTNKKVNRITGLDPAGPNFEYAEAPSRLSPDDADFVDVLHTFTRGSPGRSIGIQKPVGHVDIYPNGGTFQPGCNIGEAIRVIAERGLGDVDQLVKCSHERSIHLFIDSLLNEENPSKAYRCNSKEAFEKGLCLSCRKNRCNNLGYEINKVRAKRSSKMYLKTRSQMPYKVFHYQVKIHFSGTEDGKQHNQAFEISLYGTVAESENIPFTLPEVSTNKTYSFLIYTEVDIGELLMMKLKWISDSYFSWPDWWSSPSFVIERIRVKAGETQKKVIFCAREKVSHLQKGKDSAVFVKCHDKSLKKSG

In turn, “Fasting-induced adipose factor (Fiaf) (from UniProt Q9Z1P8 24-410)” came in with an epididymal fat pad LPL activity, GF Fiaf-/- mice versus GF littermates containing the wild-type Fiaf allele in experiment [1] of 67 % higher.

B1: Fiaf: secreted protein, a potent inhibitor of LPL in vitro (protein)
chain: QGRPAQPEPPRFASWDEMNLLAHGLLQLGHGLREHVERTRGQLGALERRMAACGNACQGPKGKDAPFKDSEDRVPEGQTPETLQSLQTQLKAQNSKIQQLFQKVAQQQRYLSKQNLRIQNLQSQIDLLAPTHLDNGVDKTSRGKRLPKMTQLIGLTPNATHLHRPPRDCQELFQEGERHSGLFQIQPLGSPPFLVNCEMTSDGGWTVIQRRLNGSVDFNQSWEAYKDGFGDPQGEFWLGLEKMHSITGNRGSQLAVQLQDWDGNAKLLQFPIHLGGEDTAYSLQLTEPTANELGATNVSPNGLSLPFSTWDQDHDLRGDLNCAKSLSGGWWFGTCSHSNLNGQYFHSIPRQRQERKKGIFWKTWKGRYYPLQATTLLIQPMEATAAS
Take B1: the IC50 with LPL was 200 nM.
